Test results: a protein production outcome set (Wang et al. 2014)

Assay: label from the status in PepcDB records

Row | Sequence | protein production
1 | AQTDPSQLKKEGSDAFNAKNYPVAYAKFSEYLKQTNNQDSAIAYYCGMAADEVKKYAEAVTFFDIAIQKKFNIGNAYARKALALDAMKKTDEYVATLEEGLKVDPDNKTMIKNYGLHYLKAGIAAQKAGKVEEAEECFKKVIPLDHKTYKTNALYSLGVLCYNDGANILKKAAPLANSDADKYAAEKEKADGRFKEAIGYLEEATKVSPEDTKSKTMLSQVQAAMK | not failed
2 | MIGKEVLNYTIVSLIGKGGMGSVYLAEHKYIKQQKVAIKVINSDMVNDFTRQRLKEEAEHLASLNHQNIVRFHDYHIDELGSIYLIMEYADGISLDKYIQTVSGLIVEDKICPLFEPILDAVEYAHEHNIIHRDIKPANIIITKEGIPKILDFGIATIINRESVEKDDMVMGTPSYMSPEQVRGDHLDSRSDIYSLGVMLHQMLTGNAPYDTTTLTEYDINKKVVEEPLPRMRTYYKYVSDKVQKIVDKATAKEPGERYQTCDDFKKALHRVIYPPKIPKWVWTSVAAIVLLMIGGGVYFWDYNRTKVYYYKDYVEQWGVPQGIGELSSREMSHVNRLYRFEYKKHKLQRMSHVNSKENIIEDGESERNERPLDMLLYYTDKGNISRAKVLDRSGKVLYVKSYNDKLNTVIFQYDDEYGTEKTLGAQTIGYVRALEDNGVEKGKISRWLLEYDENGYVSTIRYAGFQNVLVGDAHNIYGRKYVRDEKGRVLSEHYLSFDGTPKATKWGLGMKKFYYDENDNWVKAEYLTVDGKPAYDDADGIGVYVMEYDKYGNVVYALHQDADGKLMLPKKNGVAGIKYIYDQHGFPIEASYLDIDRKACFIPNDGFSKVVRKFDDNGYIINQTFYDVDGNQCLSNDGNSSAKYINDNRGNVQEMWFYGLDGKLNEINEGYAGVKLNYDSIGNIIEYVTYGIDQKPCLKSDGTAGYKAEYNDMNLITKLVNIGVDLSPCKDNNGIVIAARDYDKRGNQIKVSFYDAGGKTLVLSNENIAGWNSVYDDNGNETERSFFDDKNNLTVCAGSCAKWISKFDEQGNETNLRYYNLSGKLMMVNGSAGANYKRDKRGNILEKIEIGTDEQLASGKLIARYKYDKFDNQIEFSVYDRNNKPALNSLDYHKYVCIYNSRNQRIEIEYYGKDGELTSYNNDKYAIQKDEYDERGYIVRTSYYGKDKQLVVSNEGWASSTREYDVLGNVLKQSFFGIDGKPTDPKVMVPEGLCRYDRWGNRIYLAAGDGKGHLIINPKTGWSIQKSEYNSRGKLLSEAYFDENEKPLISRMDGYHKAVISYTSSGNEKEKCYYDIMNKPMLCPDGYFKEVYEYNDNQQAISLSYLGVNGKSIDCKDGYSKIELTYNKDGEMESRKYTNASGRILLTQKWNGKEWVNSSPEPISRNWQQDVRKFNAELPIDFGENTKHLVASSFLVTGSNSCELSFKTPKSKYEMTEAEVNEYFASIKLVVTKIKSESLPSSVVITGILFDSKGRQLRSIRK | failed
3 | MMKMMTRVLSSPSSHVSSLKYSPRRVIRASRDHLRAETLKSHQLPSGSSSTSLCSCGRKHFLEAASPTMPFLPICSPNASRSKDVSETFHPQRPDWYKELFAWFLSTGMRSYEAEVSLCDLNASFYDPFLENDRSFSCFMFVLFGKIAEYKRKLFEKLAGKAETVLEIGVGTGPNLKYFAGNENVCVFGMDPNHKMEKYACESAREAGMKPENFRFMHGVSKLLCFDL | failed
4 | MTPHKQLILGGEQAFVGNVASGDFKNRPCPSDLGDIPGTVNPPEGRNPSQDFGQRWDWIQLNAEHMKFSSVSEEKPGLLAPPAQPLTKMFQGAWLCWASLLLLVRVTQPCPVGCDCFDRKIFCSDEQLAAIPLDIPSHVTDIVFVETSFTTVGTRAFSGSPNLTKVVFLNTRVHHLEPDAFGGLPRLEDLEVTGSPFSNLSANIFSNLSSLGKLTLDFNRLAALPEDLFHHMDTLESLQLQGNQLQTLPGRLFQSLRYLRTLNLAQNLLTQLPKGMFQSLSSLQILKLSDNMFARLPEGVLSNLGSLQELFLDSNAITELSPHLFSHLLSLEKLWLQHNAISLLPVSAFSSLRNLTFLNLKDNALRTLPAGLFTHNPGLLHLSLSYNQLETVPEGSFANLRKLASLTLSHNAITHLPENVFRNLEQLVKLSLDSNNLTVLHPTLFHNLSKLQLLDLSRNQLTMLPGGIFDTNYDLFNLALLGNPWQCDCRLSYLTSWLRLYNDRIFNTHTFCAGPAYLKGQLVPNLKQEQLVCPGNPGQLGLDDREPAGSWDLAVEGRAAHRQCIYGNPEGTVLLACEEAQCRWLNIQLSSREGSDVTAMAYNSSQEWELRSTCGSVRVTVSIEAQAAGP | failed
5 | MSLYTFKELKRATKQDTVSLPKLKVALLGDTATQLLATAIKGEGILRNYNIELWEAEYNQVERQIMDPTSDYYQFEPDYTIIFHSTHKLLEKHSLVNSDLQNKLADDRLDFVRLLCEQGIGRVIYYNYPEIEDTIWGSYATKVQSSFTYQLTKLNYELMNISQAYPNFFICNLAGISAKYGRNFMFDSSVYVNTEIILSLDALPIISSRTIDIIAAIQGKFKKCLILDLDNTIWGGVVGDDGWENIQVGHGLGIGKAFTEFQEWVKKLKNRGIIIAVCSKNNEGKAKEPFERNPEMVLKLDDIAVFVANWENKADNIRTIQRTLNIGFDSMVFLDDNPFERNMVREHVPGVTVPELPEDPGDYLEYLYTLNLFETASFSEGHHHHHH | not failed
6 | WIAQIHKTKTNYFLNLLKEGKIPLRPGIKRLLDELRKNNIKIAIATTTTYENVSTLLQCTLGDSALEWFDVIGAGDIVSKKKPAPDIYEWVLNQLNLPAEACIAIEDSENGLKSATAAGIKTIITISEYTREQNFSYAALVLEDLESTDHTHQIAAQSFDKPLSVQTLSDLLN | failed
7 | SALTAALSVCPLPSSSFFFAGFLPHKKGRKSRLEFLASIDSTIVLYESPHRIGRLMEEVKEHFPDAQVFAAREITKMHEEYVTGTPDELANHFTGQKQRGEFVVVVHPPDKH | failed
8 | MTAIAPVITIDGPSGAGKGTLCKAMAEALQWHLLDSGAIYRVLALAALHHHVDVASEDALVPLASHLDVRFVSTNGNLEVILEGEDVSGEIRTQEVANAASQVAAFPRVREALLRRQRAFRELPGLIADGRDMGTVVFPDAPVKIFLDASSEERAHRRMLQLQEKGFSVNFERLLAEIKERDDRDRNRAVAPLVPAADALVLDSTTLSIEQVIEKALQYARQKLALA | failed
9 | MDSKIDFSSYSLNDLYSSAESIDRDVYPERAKEIDGLIRQKEAEFPEEIDTTKDIGEKATKSDRLMAAIIDGVIGIISLVPVIFYVGFDSFKEPSLSLLGILFIYGVFVTMVLHGYLLYYYGQTIGKNYMSIRIENLDGTKASLATIYFKRMLPMQLIGLIPSFGQFISGIVNPLFIFGKQRRCLHDYLAKTKVSYTGT | failed
10 | MLSAYFSGSETGLLSLNKYRLRFLSEQGNKGAKKAEKLLEKPDTLLSFILIFNNLVNISASAIATVIGMRLYGDAGVAIATGLLTFVMLVFSEIFPKTVAAMHAEKVSFFSSHILTSLLKIFYPLVWLMNIFTKSLMQIVGLKLDMQKQVISSEELRSIVSEAGEATPNEQHPQMLLSILDMETVTVDDIMVPRNEIGGINIDDDWRAIMRQLNHAAHNRVVLYKGSLDEQVLGILRVREAFRLLLEKNEFTKETLIRAADEVYFIPESTPLKTQLANFRTNKERIGLVVDEYGDIKGLVTLEDILEEIVGDFTTSTAPSIDKEVIQQSDGSMIIDGSANLRDLNKMFNWELDTEDARTFNGLILEHLEEIPDEGTICEIDGLLITILEVGDNMIKQAKVVKL | not failed
11 | MDELAGGGGGGQGMAAPPRPQQGPGGNLSLPPGANGAPGGGGPPAAEAAGPPAGPELSRPQQYTIPGILHYIQHEWARFEMERAHWEVERAELQARIAFLQGERKGQENLKKDLVRRIKMLEYALKQERAKYHKLKYGTELNQGDLKMPTFESEETKDVEAPPAPQNSQLTWKQGRQLLRQYLQEVGYTDTILDVRSQRVRSLLGLSNSEPNGSVEAKNLEQILNGGESPKQKGQEIKRPPGDVLETFNFLENADDSDEEENDMIEGIPEGKDKLRIHKHKIGNEGLAADLTDDPDTEEALKEFDFLVTAEDGEGAGEARSSGDGTEWDKDDLSPTAEVWDVDQGLISKLKEQYKKERKGKKGVKRVNRTNLCDMITDLGDDELPHIPSGIINQSRSASTRMADHEGARAEEAEPITFPSGGGKSFIMGSDDVLLSVLGLGDLADLTVTNDADYSYDLPANKDAFRKTWNPKYTLRSHFDGVRALAFHPVEPVLVTASEDHTLKLWNLQKTVPAKKSASLDVEPIYTFRAHIGPVLSLAISSNGEQCFSGGIDATIQWWNMPSPNVDPYDTYESNVLAGTLVAHTDAVWGLAYSGIKNQLLSCSADGTIRLWNPQEKLPCVCTYNGDKEHGIPTSVDFIGCDPAHMVTSFNTGSAVIYDLETSQSLVMLSSQVDSGLQSSNHINRVVSHPTLPVTITAHEDRHIKFFDNKTGKMIHSMVAHLDAVTSLAVDPNGIYLMSGSHDCSIRLWNLDSKTCVQEITAHRKKLDESIYDVAFHPSKAYIASAGADALAKVFV | failed
12 | MSSHNMTEVLVGGAVLAAALTFGIYASQATGLSRGTGGYELAASFRSLEGVTVGTDVRLAGVKIGTVTGVDLNPESYRADTRFTVSEGIQIPDDSAAVISSEGLLGGNFLEIMPGGSAFYFEPGDVIDDTQGAVSLISLLVKFVAGDGSGELEHHHHHH | not failed
13 | SLDDHTRDPTVKAPDGNPSGWRTDGQWEHETLRRAVVHGVRLYNSGEFHESHDCFEDEWYNYGRGNTESKFLHGMVQVAAGAYKHFDFEDDDGMRSLFRTSLQYFRGVPNDYYGVDLLDVRTTVTNALSDPSALHGWQIRLDGEYPTCRPEDIEFAESLEH | not failed
14 | MNDLVESLIYEVNNMQQNFENVKSQQQDHDFYQTVKPYTEHIDSILNEIKLHREFIIEVPYMNSRKFELLIANIEQLSVECHFKRTSRKLFIEKLKSVQYDLQNILDGVTKEGTDG | not failed
15 | MGSRDLISSLPDEILGKVLSLLPTKRAASTAVLSKRWNNLPALVDKLDINDAIGGPGGFPEFIDKTLALLTNSTTIKRTSLNNEFQYGESQVNTWIRSFLERGCLQLYLNAQSLYTIDTEFFTSNTLVELTITGGFSPDGLLPPGGVFFPKLKTLSLVLMTFVDSDMYELFISGCPLLEEFLLRNDEIEIPPVWNALVSSPSIKRLTIVHHFPNYREAHDGCWFRTPNLVYLDYSSYVPDWYEVDLGSLVEARLDLRSWERLRDEKAGGYGDCDSVYDDEEYPDDPILGDVTNLVTGLSNIKTLHLSPDSLEVFYFCCKSMPVFHNLLTLSFESAKKEAGQCCHFSSISLLT | failed
16 | MTNGGGGMSSGEGFRRRSSGEGFPAREFRWWVSGDRVFPRGFFGEGVQVGVPTVVSGEGVPAKVPGGDFSGKKVPAVVFRRVSSSDGGGRGSGGGGGGGSGLGW | failed
17 | MTTETIQSNANLAPLPPHVPEHLVFDFDMYNPSNLSAGVQEAWAVLQESNVPDLVWTRCNGGHWIATRGQLIREAYEDYRHFSSECPFIPREAGEAYDFIPTSMDPPEQRQFRALANQVVGMPVVDKLENRIQELACSLIESLRPQGQCNFTEDYAEPFPIRIFMLLAGLPEEDIPHLKYLTDQMTRPDGSMTFAEAKEALYDYLIPIIEQRRQKPGTDAISIVANGQVNGRPITSDEAKRMCGLLLVGGLDTVVNFLSFSMEFLAKSPEHRQELIERPERIPAACEELLRRFSLVADGRILTSDYEFHGVQLKKGDQILLPQMLSGLDERENACPMHVDFSRQKVSHTTFGHGSHLCLGQHLARREIIVTLKEWLTRIPDFSIAPGAQIQHKSGIVSGVQALPLVWDPATTKAV | not failed
18 | MAASSQAPEAKGFRWKLIAPLVVWLAIYLWPVPSGLNVNQWHYFAVFAAVITGLILESMPVGAVGLIGLTVAGVGGYIDPDPTKSLRWMLAGFAESTVWLIVGAFVFSIGYRKSQLGRRIALVLVQKLGSNTLGLGYAVAMSDFLLAPATPSNTARSGGIVYPIISNIPRIYGSEPGPTAGRIGTYVMWTAFAATAVTSSLFFTALAPNAAALAIAKKTVGVEVSWGQWFIGFAPLGILLMILVPLLSYPVCRPEVKRSPEIAEWAAKELSEMGPMSRNEWIMLALIVLAMFLWIAGSSPDINVPLLGSNFVNATTVVFIVISLMLVTGVIEFADIVSEKSAWEVFFYFTSLLTLASGLNEIGFIKWFATEYAKPLAGLSPSTAMILLVALFFWIHYFFSSITSHAAAVLPVVLAVGSGIPGLPVTTLAMLCMYSLGLMGVISPYATGPAPMYFGSGYIGKGQFWGFGLIFGLLYFAGLLLIVLPWLQVR | failed
